Source: paper PMC6651862

Biological target: HCMV trimeric gH/gL recombinant protein (human cytomegalovirus, strain Merlin | T4 phage) (UniProt F5HCH8)
Experiment: native gel or EMSA

“HCMV trimeric gH/gL recombinant protein (from UniProt F5HCH8;Q6SW67)” was tested, and the stoichiometry N was 3.
